# Measured values taken from publication PMC3379008.
# Biological target: B/Florida/04/06 full-length HA protein produced from baculovirus in Spodoptera frugiperda insect cells (influenza B virus B/Florida/04/06)
# Test: SEC
substance,measurement,value
B/Florida/04/06 full-length HA protein produced from baculovirus in Spodoptera frugiperda insect cells (natural protein),stoichiometry N,> 9 HA monomers
